These results are taken from patent US20250144178A1 (KANAPH THERAPEUTICS, published 2025).

In assay [1] the target is IL-12 receptor of human T cells (human, UniProt P42701 24-662; Q99665 24-862). Put plainly: cell-based or functional assay.
The target in assay [2] is T1, human FAP (fibroblast activation protein alpha) overexpressed in HEK293 cells (HEK293-hFAP) (human, UniProt Q12884 1-760).
T1 construct: whole, on cells; also called human FAP-expressing cell line
T1 sequence (looked up): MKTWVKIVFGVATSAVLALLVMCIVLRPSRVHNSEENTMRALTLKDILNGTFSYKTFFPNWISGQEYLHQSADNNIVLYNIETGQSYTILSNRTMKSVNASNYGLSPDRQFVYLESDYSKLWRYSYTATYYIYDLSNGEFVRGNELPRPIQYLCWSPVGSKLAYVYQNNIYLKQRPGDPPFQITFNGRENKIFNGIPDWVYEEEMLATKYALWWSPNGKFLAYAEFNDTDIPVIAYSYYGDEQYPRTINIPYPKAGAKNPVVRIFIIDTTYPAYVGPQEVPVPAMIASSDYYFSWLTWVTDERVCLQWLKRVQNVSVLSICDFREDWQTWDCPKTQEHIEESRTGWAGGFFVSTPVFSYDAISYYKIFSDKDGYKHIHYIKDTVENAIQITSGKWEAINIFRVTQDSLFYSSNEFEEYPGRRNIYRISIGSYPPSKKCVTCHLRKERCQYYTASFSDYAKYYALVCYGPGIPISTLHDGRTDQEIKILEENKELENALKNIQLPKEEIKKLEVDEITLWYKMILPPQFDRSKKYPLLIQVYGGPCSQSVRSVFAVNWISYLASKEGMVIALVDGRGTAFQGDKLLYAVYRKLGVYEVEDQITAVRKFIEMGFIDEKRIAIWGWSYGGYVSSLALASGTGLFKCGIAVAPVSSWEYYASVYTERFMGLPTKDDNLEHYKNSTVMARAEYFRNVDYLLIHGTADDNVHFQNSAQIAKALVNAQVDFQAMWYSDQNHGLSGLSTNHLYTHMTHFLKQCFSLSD
Put plainly: flow cytometry on HEK293-hFAP cells, detection with anti-human IgG antibody. On the procedure: (§1) Specifically, the cell line was prepared by suspending in a FACS buffer solution at 1×10⁵ cells/100 μl, and treated with 1 μg each of T1.12, T1.01, T1.02 and T1.03. The cells were washed twice with a FACS buffer solution. The cells were stained with an anti-human IgG antibody (Biolegend). The negative control was stained only with an anti-human IgG antibody (Biolegend). The expression rates of the stained cells were measured using BD LSR and analyzed using a FlowJo software.

In assay [3] the target is T1, human FAP (fibroblast activation …). In words: flow cytometry on HEK293-hFAP cells, 1 µg protein per 1x10^5 cells, anti-human IgG detection. On the procedure: as §1
The target in assay [4] is T2, IL-12 receptor beta 1-biotin (recombinant human IL-12 receptor protein) (human, UniProt P42701 24-545, limits assumed, biotin (site not stated)).
T2 construct: Bought reagent; also called IL-12Rβ1-Biotin
Put plainly: ELISA, fusion protein coated in serial dilution, 1 nM IL-12Rβ1-biotin, streptavidin-HRP, OD at 450 nm. On the procedure: (§2) (ii) The wells were washed with a wash solution, and then blocking was performed for 1 hour with 1% BSA (Bovine serum albumin, Sigma) solution.
(§3) (iii) The wells were washed with a wash solution, and then treated with 1 nM IL-12 receptor beta 1-biotin (IL-12Rβ1-Biotin; Acrobiosystems, Newark, USA) for 2 hours.
(§4) (iv) The wells were washed with a wash solution, and then treated with streptavidin-HRP for 20 minutes.

Assay [5] concerns the target T3, recombinant human FAP (human, UniProt Q12884 26-760).
T3 construct: Soluble analyte in SPR; The description calls FAP a homodimer; also called rhFAP
T3 sequence (looked up): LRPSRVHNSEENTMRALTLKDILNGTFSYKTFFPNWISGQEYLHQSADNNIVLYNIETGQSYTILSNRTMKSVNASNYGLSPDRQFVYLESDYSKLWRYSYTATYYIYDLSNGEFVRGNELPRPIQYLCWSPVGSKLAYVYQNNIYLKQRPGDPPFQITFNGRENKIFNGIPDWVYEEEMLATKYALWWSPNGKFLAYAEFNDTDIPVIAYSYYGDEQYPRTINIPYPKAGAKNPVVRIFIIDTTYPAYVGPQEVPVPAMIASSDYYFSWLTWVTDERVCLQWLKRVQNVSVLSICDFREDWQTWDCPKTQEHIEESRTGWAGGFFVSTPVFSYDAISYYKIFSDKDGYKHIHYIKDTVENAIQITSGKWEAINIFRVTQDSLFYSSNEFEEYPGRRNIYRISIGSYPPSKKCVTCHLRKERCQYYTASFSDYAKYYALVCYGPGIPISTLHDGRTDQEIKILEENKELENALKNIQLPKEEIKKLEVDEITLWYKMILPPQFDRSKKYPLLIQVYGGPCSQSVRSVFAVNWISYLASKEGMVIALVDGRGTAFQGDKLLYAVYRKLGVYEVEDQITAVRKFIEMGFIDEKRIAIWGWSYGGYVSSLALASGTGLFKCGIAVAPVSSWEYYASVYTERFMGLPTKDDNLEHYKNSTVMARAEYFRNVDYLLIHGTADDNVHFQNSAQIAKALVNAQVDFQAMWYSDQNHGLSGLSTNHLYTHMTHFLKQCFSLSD
Put plainly: SPR, fusion protein captured by anti-human IgG (Fc) on a CM5 chip, hFAP his as analyte 0.78125-50 nM, 1:1 binding model.

Assay [6] concerns the target T2, IL-12 receptor beta 1-biotin …. In words: ELISA, protein coated in serial dilution, 1 nM IL-12Rβ1-biotin, streptavidin-HRP, OD at 450 nm. On the procedure:
as §2, §3, §4

The target of assay [7] is T3, recombinant human FAP. In words: SPR, fusion protein captured by anti-human IgG (Fc) on a CM5 chip, human FAP as analyte 1.5625-200 nM, 1:1 binding model. On the procedure:
Specifically, the surface of the CM5 chip was activated with a 1:1 mixture of […] NHS (N-hydroxysuccinimide) and […] EDC (1-Ethyl-3-(3-dimethylaminopropyl) carbodiimide), and 25 μg/ml of anti-human IgG (Fc) antibody was immobilized for 400 seconds at a rate of 10 μl/min. The remaining active ester groups were blocked with 1 M ethanolamine. T1.01, T1.02 and T1.03 were diluted to 2 μg/ml and reacted on the CM5 chip immobilized with the anti-human IgG (Fc) antibody. The recombinant human FAP was diluted to 200 nM in 1×HBS-EP+buffer solution and diluted by serial dilution. The diluted recombinant human FAP was reacted at a rate of 30 μl/min. The association and dissociation times were 180 seconds and 400 seconds, respectively. After the dissociation, stabilization was performed for 60 seconds, and then a regeneration was performed for 30 seconds with a 10 mM glycine pH 1.5 solution at a rate of 30 μl/min.

Chain of IL-12 receptor of human T cells (Q99665 24-862, chain 2 of 2, other chains not shown): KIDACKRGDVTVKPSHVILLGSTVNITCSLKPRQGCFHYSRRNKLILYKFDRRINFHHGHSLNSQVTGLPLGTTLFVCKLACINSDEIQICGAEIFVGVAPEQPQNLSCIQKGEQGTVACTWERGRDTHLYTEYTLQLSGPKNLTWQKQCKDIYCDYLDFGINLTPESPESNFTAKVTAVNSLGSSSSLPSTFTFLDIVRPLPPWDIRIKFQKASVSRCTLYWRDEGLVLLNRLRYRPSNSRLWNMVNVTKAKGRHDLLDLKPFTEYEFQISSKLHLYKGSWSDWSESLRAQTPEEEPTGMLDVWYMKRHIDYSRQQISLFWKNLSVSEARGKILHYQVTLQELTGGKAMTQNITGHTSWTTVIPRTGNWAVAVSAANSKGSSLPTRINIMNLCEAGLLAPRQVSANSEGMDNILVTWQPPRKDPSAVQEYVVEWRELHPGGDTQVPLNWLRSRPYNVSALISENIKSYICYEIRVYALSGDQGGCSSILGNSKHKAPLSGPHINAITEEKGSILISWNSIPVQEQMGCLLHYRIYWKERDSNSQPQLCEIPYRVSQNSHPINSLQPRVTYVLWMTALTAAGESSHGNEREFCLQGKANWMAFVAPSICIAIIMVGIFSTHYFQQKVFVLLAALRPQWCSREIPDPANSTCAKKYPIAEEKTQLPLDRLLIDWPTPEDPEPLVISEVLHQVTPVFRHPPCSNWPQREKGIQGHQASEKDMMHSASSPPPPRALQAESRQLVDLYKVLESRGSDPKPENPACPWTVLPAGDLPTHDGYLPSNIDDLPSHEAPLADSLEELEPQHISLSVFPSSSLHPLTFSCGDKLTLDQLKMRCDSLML

B1: T1.02 (anti-hu FAP/hu IL-12 mut1, hu IgG1 DANG) (bispecific antibody)
heavy: QVQLVQSGAEVKKPGASVKVSCKTSRYTFTEYTIHWVRQAPGQRLEWIGGINPNNGIPNYNQKFKGRVTITVDTSASTAYMELSSLRSEDTAVYYCARRRIAYGYDEGHAMDYWGQGTLVTVSSASTKGPSVFPLAPSSKSTSGGTAALGCLVKDYFPEPVTVSWNSGALTSGVHTFPAVLQSSGLYSLSSVVTVPSSSLGTQTYICNVNHKPSNTKVDKKVEPKSCDKTHTCPPCPAPELLGGPSVFLFPPKPKDTLMISRTPEVTCVVVAVSHEDPEVKFNWYVDGVEVHNAKTKPREEQYGSTYRVVSVLTVLHQDWLNGKEYKCKVSNKALPAPIEKTISKAKGQPREPQVYTLPPSRDELTKNQVSLWCLVKGFYPSDIAVEWESNGQPENNYKTTPPVLDSDGSFFLYSKLTVDKSRWQQGNVFSCSVMHEALHNHYTQKSLSLSPGK
light: not shown
chain: not shown
notes: Knob-in-hole heterodimer
On to B1, for which, in assay [1], the “fold change of the p-STAT4 EC50 with low molecular weight heparin against without, activated human T cells” value came out at 5.5 times and the “half maximal effective concentration (EC50) of p-STAT4 (Tyr693), AlphaLISA, activated human T cells” value worked out at 56.5 pM. In addition, the “percent of cells in the positive gate (hFAP-PE)” value (“percent of cells … (hFAP-PE)” below) in assay [2] was found to be 99.8%. Also, the “percent of cells bound” value in assay [3] was no less than 99%. The “EC50 (read off the curve)” value in assay [4] was roughly 20000 pM. In addition, in assay [5], the equilibrium dissociation constant (Kd) came to 595 pM, the koff was determined as 0.000139 s⁻¹ and the kon is 235000 M⁻¹ s⁻¹.

B2: T1.12 (anti-hu FAP/null, hu IgG1 DANG) (antibody)
heavy: B1 heavy
light: not shown
chain: not shown
notes: One-armed anti-FAP antibody without IL-12; used as the control for IL-12 activity
As for B2, the “percent of cells … (hFAP-PE)” value in assay [2] was 99.3%. Also, the “percent of cells bound” value in assay [3] is no less than 99%. Moreover, the binding result in assay [6] is listed as “no binding (tested: 10^5 pM)”.

B3: T1.01 (anti-hu FAP/hu IL-12, hu IgG1 DANG) (bispecific antibody)
heavy: B1 heavy
light: not shown
chain: not shown
notes: Knob-in-hole heterodimer: one anti-FAP Fab arm and one single-chain human IL-12 (p40-linker-p35) Fc arm
As for B3, in assay [1], the “fold change of the p-STAT4 EC50 with low molecular weight heparin against without, activated human T cells” value is 9.4 times and the “half maximal effective concentration (EC50) of p-STAT4 (Tyr693), AlphaLISA, activated human T cells” value came out at 14.5 pM. Also, in assay [2], the “percent of cells … (hFAP-PE)” value was found to be 99.8%. Moreover, the “percent of cells bound” value in assay [3] was no less than 99%. Further, the half-maximal effective concentration (EC50 (read off the curve)) in assay [4] was roughly 20000 pM. Besides, in assay [5], the dissociation constant Kd was found to be 588 pM, the koff turned out to be 0.000152 s⁻¹ and the kon was 258000 M⁻¹ s⁻¹.

B4: T1.03 (anti-hu FAP/hu IL-12 mut2, hu IgG1 DANG) (bispecific antibody)
heavy: B1 heavy
light: not shown
chain: not shown
notes: Knob-in-hole heterodimer
Turning to B4, in assay [1], the “fold change of the p-STAT4 EC50 with low molecular weight heparin against without, activated human T cells” value stood at 4 times and the “half maximal effective concentration (EC50) of p-STAT4 (Tyr693), AlphaLISA, activated human T cells” value was determined as 147 pM. Besides, in assay [2], the “percent of cells … (hFAP-PE)” value was determined as 99.3%. Further, in assay [3], the “percent of cells bound” value was no less than 99%. The “EC50 (read off the curve)” value in assay [4] is roughly 20000 pM. In assay [7], the Kd turned out to be 1300 pM, the dissociation rate constant (koff) stood at 0.000124 s⁻¹ and the kon is 94900 M⁻¹ s⁻¹.
